Stoichiometry N data for one substance are collected here from publication PMC9639781.

Broadly, the stoichiometry N is the number of molecules, sites or subunits per partner or assembly.

In this test the target is ATP synthase (endogenous, mouse cardiomyocytes) (mouse (endogenous in mouse neonatal cardiomyocytes)) (UniProt P56480). Briefly: native gel or EMSA. On the technique in general: A gel shift assay detects complexes by their altered migration in electrophoresis.

“ATP synthase (endogenous, mouse cardiomyocytes) (from UniProt P56480 47-529; Q9DCX2 1-161; Q9DB20 24-213; Q9CQQ7 43-256) (complex)” showed a stoichiometry N of 2.
